Laboratory results from patent US20200317768A1 (published 2020).
Positions count from the first letter of the chain named.

T1: cynomolgus monkey FcγRIIa2 extracellular domain, His-tagged (cynomolgus monkey)
T1 construct: also called cyno FcγRIIa2; cynoFcgRIIa2
T1 chain: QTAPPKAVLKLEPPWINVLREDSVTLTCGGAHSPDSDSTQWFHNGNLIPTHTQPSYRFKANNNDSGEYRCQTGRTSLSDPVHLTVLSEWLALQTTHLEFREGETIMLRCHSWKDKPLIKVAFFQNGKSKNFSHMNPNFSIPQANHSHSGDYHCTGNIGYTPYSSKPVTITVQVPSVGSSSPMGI

T2: cynomolgus monkey FcγRIIa1 extracellular domain, His-tagged (cynomolgus monkey)
T2 construct: also called cyno FcγRIIa1; cynoFcgRIIa1
T2 chain: T1 chain with T95P, A121T, K127I, S128A, N130K, N135D, Q142R

T3: cynomolgus monkey FcγRIIa3 extracellular domain, His-tagged (cynomolgus monkey)
T3 construct: also called cyno FcγRIIa3; cynoFcgRIIa3
T3 chain: T1 chain with K127I, N130K, H133P, Q142R

T4: cynomolgus monkey FcγRIIIaS extracellular domain, His-tagged (cynomolgus monkey, UniProt Q8SPW2 21-206 at identity 1.00))
T4 construct: also called cyno FcγRIIIaS; cynoFcγRIIIaS
T4 chain: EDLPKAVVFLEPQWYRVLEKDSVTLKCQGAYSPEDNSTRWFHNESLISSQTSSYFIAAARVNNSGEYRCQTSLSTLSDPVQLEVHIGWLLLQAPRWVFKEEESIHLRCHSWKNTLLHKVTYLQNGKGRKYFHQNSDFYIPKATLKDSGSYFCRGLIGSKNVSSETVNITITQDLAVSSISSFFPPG

T5: cynomolgus monkey FcγRIIb extracellular domain, His-tagged (cynomolgus monkey)
T5 construct: also called cyno FcγRIIb; cynoFcγRIIb
T5 chain: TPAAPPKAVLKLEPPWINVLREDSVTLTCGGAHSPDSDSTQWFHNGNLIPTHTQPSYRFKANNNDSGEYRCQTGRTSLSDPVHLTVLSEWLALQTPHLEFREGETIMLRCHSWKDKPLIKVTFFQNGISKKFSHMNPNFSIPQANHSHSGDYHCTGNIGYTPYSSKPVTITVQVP

T6: human FcγRIIaH extracellular domain, His-tagged (human, UniProt P12318 34-217)
T6 construct: also called human FcγRIIa (type H); FcgRIIaH
T6 sequence: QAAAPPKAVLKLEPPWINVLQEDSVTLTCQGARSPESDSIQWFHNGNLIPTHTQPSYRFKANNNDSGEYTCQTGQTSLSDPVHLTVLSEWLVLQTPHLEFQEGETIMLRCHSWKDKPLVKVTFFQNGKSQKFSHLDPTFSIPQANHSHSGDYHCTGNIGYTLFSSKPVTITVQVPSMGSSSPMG

T7: human FcγRIIaR extracellular domain, His-tagged (human, UniProt P12318 34-217)
T7 construct: also called human FcγRIIa (type R); FcgRIIaR
T7 chain: T6 sequence with H134R

B1: M103205H795-MY070/M103202L889-SK1 (antibody, human IgG1, kappa)
heavy: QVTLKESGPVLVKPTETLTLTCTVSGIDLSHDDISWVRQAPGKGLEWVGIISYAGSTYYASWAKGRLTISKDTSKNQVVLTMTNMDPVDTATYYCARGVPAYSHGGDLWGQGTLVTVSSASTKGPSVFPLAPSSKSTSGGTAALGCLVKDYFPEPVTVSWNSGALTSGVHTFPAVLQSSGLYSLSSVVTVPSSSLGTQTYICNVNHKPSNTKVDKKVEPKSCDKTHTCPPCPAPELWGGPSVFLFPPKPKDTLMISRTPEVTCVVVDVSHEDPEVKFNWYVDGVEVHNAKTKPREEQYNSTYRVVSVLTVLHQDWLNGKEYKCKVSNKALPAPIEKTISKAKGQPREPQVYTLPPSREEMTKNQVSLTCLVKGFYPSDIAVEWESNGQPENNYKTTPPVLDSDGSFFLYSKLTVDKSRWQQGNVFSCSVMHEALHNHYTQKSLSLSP
light: DIVMTQSPATLSLSPGERATLSCTSSQSVYHANWLSWFQQKPGQPPKLLIYWASTLAYGVPSRFSGSGSGTDFTLTISSLQPEDAATYYCAGGYGGGRYAFGQGTKVEIKRTVAAPSVFIFPPSDEQLKSGTASVVCLLNNFYPREAKVQWKVDNALQSGNSQESVTEQDSKDSTYSLSSTLTLSKADYEKHKVYACEVTHQGLSSPVTKSFNRGEC
notes: Substitution put into M103205H795-SG1
B2: M103205H795-MY072/M103202L889-SK1 (antibody, human IgG1, kappa)
heavy: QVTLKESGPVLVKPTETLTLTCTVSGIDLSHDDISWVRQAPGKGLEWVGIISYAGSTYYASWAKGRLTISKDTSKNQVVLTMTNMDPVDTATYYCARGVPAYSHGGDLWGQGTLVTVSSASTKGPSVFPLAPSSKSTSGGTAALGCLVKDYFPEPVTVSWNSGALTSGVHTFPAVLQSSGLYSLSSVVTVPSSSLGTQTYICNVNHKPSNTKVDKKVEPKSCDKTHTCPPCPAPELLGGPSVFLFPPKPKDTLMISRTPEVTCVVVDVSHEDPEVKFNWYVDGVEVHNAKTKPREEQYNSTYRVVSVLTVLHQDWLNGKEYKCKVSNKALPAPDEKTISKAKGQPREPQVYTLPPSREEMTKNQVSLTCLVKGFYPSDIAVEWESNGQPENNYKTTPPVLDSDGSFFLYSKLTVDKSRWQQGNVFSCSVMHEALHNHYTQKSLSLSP
light: B1 light
notes: as for B1
B3: M103205H795-MY196/M103202L889-SK1 (antibody, human IgG1, kappa)
heavy: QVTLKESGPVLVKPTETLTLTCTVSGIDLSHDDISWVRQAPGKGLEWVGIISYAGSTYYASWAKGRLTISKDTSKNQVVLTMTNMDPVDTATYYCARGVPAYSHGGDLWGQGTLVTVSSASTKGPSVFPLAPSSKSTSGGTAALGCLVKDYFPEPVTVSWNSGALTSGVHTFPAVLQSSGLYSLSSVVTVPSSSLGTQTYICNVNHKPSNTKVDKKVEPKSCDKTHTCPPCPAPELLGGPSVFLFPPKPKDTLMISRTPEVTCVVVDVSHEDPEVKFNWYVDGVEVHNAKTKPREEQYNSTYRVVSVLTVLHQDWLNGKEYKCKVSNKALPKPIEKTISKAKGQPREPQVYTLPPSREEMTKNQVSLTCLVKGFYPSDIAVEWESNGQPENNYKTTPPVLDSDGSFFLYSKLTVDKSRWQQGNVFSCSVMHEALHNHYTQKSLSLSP
light: B1 light
notes: as for B1
B4: M103205H795-MY073/M103202L889-SK1 (antibody, human IgG1, kappa)
heavy: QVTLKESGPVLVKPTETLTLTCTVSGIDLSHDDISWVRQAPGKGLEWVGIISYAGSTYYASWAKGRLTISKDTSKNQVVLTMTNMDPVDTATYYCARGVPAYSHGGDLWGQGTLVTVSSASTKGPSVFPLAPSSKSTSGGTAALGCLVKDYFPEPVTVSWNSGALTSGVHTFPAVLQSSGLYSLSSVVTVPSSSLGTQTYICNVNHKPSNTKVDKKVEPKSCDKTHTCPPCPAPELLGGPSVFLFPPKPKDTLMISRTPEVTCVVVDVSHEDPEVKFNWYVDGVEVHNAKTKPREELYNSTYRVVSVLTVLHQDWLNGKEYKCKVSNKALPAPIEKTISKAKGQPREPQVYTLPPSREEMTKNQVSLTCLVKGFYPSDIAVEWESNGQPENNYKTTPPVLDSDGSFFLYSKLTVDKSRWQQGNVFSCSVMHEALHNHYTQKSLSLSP
light: B1 light
notes: as for B1
B5: M103205H795-MY071/M103202L889-SK1 (antibody, human IgG1, kappa)
heavy: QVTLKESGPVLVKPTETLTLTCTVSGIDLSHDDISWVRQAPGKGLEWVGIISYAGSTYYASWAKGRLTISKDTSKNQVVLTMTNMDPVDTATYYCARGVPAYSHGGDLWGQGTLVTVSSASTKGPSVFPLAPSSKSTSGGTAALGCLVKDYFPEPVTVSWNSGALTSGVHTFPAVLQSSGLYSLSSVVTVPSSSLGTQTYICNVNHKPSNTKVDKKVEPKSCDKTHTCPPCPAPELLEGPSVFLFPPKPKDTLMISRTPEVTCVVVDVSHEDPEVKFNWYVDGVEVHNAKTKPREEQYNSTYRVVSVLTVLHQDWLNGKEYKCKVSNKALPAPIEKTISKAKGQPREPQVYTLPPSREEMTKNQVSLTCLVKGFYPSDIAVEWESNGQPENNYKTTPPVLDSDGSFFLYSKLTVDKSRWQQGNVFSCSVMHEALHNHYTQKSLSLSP
light: B1 light
notes: as for B1
B6: M103205H795-MY124/M103202L889-SK1 (antibody, human IgG1, kappa)
heavy: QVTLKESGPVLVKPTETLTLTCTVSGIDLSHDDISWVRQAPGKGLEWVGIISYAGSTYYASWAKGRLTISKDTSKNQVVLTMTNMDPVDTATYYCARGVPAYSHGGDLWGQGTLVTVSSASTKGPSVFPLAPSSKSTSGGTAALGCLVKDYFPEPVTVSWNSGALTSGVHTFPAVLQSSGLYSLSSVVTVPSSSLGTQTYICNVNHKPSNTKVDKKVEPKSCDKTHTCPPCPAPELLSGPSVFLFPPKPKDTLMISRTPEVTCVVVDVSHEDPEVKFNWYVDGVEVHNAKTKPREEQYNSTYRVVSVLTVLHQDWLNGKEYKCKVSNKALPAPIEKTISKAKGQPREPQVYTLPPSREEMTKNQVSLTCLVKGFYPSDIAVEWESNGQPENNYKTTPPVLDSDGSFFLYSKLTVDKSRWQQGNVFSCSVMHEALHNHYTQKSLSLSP
light: B1 light
notes: as for B1

Tests used:
Test in all cases: SPR; KD of SG1 / KD of variant;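 note: relative to parent M103205H795-SG1 carrying the SG1 human heavy chain constant region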
[1] = molecular target: T1, cynomolgus monkey FcγRIIa2 …
[2] = molecular target: T8, human FcγRIIIaV extracellular domain, His-tagged (human, UniProt P08637 17-208)
T8 construct: also called FcgRIIIaV
T8 sequence (P08637 17-208 F176V): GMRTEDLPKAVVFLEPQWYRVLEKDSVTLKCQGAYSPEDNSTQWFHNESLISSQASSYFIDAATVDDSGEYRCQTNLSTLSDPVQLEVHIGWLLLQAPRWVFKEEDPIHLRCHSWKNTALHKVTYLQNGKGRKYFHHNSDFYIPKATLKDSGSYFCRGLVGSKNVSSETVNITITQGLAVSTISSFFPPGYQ

[3] = molecular target: T2, cynomolgus monkey FcγRIIa1 …
[4] = molecular target: T3, cynomolgus monkey FcγRIIa3 …
[5] = molecular target: T4, cynomolgus monkey FcγRIIIaS …
[6] = molecular target: T5, cynomolgus monkey FcγRIIb extracellular …
[7] = molecular target: T6, human FcγRIIaH extracellular domain, …
[8] = molecular target: T7, human FcγRIIaR extracellular domain, …

| Binder | KD fold (SG1 = 1) [1] | KD fold (SG1 = 1) [2] | KD fold (SG1 = 1) [3] | KD fold (SG1 = 1) [4] | KD fold (SG1 = 1) [5] | KD fold (SG1 = 1) [6] | KD fold (SG1 = 1) [7] | KD fold (SG1 = 1) [8] |
| --- | --- | --- | --- | --- | --- | --- | --- | --- |
| B1 | 1.8 fold | 1.16 fold | 1.4 fold | 3.6 fold | 0.73 fold | 1.5 fold | 1.4 fold | 1.5 fold |
| B2 | 4.3 fold | 6.75 fold | 3.2 fold | 6.5 fold | 6.79 fold | 3.8 fold | 2.8 fold | 2.3 fold |
| B3 | 1.7 fold | 0.37 fold | 1.3 fold | 0.7 fold | 0.6 fold | 0.8 fold | 1.4 fold | 0.8 fold |
| B4 | 8.9 fold | 2.38 fold | 2.7 fold | 3.3 fold | 2.12 fold | 2.7 fold | 2.9 fold | 2.2 fold |
| B5 | 1.4 fold | 1.59 fold | 0.6 fold | 1.5 fold | 1.29 fold | 0.7 fold | 1.7 fold | 2.4 fold |
| B6 | 1.6 fold | 0.16 fold | 1.7 fold | 1.4 fold | 0.28 fold | 0.8 fold | 4.9 fold | 2.1 fold |
